We go through three molecules from patent US20250313621A1 (NXERA PHARMA UK, published 2025).

T1: Soluble PAR2 StaR (recombinant human PAR2 StaR protein in detergent, construct not stated) (human, UniProt P55085 37-377, limits assumed)
T1 construct: also called purified PAR2
T1 sequence: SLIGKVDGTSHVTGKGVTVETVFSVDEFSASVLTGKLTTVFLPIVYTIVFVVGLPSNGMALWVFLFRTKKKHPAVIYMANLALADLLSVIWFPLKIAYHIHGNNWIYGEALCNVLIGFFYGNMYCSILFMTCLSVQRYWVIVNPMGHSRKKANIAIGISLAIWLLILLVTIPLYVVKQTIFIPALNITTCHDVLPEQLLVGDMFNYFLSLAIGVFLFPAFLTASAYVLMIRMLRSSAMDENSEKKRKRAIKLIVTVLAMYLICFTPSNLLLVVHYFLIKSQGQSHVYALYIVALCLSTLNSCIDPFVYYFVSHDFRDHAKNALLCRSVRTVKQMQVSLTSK

T2: PAR2-3: P157: 1-377, glycosylated, pBacMamHisStrepII, full length (human, UniProt P55085 26-377)
T2 construct: detergent-solubilised analyte in SPR, or on infected cells in flow cytometry; also called FL-N PAR2 StaR; FL-N StaR; not shown: C-terminal StrepII and deca-histidine tags
T2 sequence: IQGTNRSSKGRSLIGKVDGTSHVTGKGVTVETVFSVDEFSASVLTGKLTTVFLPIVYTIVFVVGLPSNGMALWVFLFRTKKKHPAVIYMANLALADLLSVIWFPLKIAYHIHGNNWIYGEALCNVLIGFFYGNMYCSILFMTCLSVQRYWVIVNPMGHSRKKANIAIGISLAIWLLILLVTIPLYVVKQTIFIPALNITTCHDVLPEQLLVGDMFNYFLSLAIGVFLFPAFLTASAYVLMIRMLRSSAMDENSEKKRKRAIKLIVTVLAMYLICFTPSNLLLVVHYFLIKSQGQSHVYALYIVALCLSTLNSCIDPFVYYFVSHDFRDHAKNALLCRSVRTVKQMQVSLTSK

T3: Wildtype human PAR2 expressed on cells (human, UniProt P55085 37-397)
T3 sequence: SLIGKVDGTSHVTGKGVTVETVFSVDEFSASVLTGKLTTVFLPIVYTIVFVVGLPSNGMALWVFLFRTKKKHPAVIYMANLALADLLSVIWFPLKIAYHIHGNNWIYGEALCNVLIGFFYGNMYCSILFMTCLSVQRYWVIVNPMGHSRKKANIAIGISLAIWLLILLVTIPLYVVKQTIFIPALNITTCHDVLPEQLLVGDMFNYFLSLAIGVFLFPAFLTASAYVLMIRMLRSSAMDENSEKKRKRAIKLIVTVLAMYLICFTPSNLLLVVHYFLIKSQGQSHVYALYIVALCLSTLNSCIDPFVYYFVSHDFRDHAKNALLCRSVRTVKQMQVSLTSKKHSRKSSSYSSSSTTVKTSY

B1: Y022870 (antibody, human IgG1, lambda, V domains shown)
VH: EVQLLESGGGLVQPGGSLRLSCAASGFSFSRYAITWVRQAPGKGLEWVSTISALGLETYYAESVRGRFTISRDNSKNTLYLQMNSLRAEDTAVYYCARGFHYTHSGKRYYYPFDIWGQGTLVTVSS
VL: QSALTQPASVSGSPGQSITISCTGTSSDVGSYNLVSWYQQHPGKAPKLMIYEGSKRPSGVSNRFSGSKSGNTASLTISGLQAEDEADYYCSQYATFIAFAVFGGGTKLTVLG
notes: also called Y22870
B2: Y022877 (antibody, human IgG1, lambda, V domains shown)
VH: B1 VH with S28T, I34M, A53G, L56Q, T58A, E62G, R65K
VL: B1 VL
notes: also called Y22877
B3: Y022883 (antibody, human IgG1, lambda, V domains shown)
VH: B1 VH with S30T, T35S, T50V, A53G, L54H, L56S, T58A, Y59N, R65K
VL: B1 VL
notes: also called Y22883; Y02283

Numbering of substitutions follows the chain as printed.

The first test deals with T1, Soluble PAR2 StaR (recombinant human …). Kind of test: SPR Biacore T200; IgG captured, PAR2 as analyte; 25 C, 30 min dissociation. The method, then:
The assay of PAR2 interaction with anti-PAR2 antibodies was carried out using a Biacore T200 instrument (GE Healthcare). Anti-human IgG antibody (Human Antibody Capture Kit, GE Healthcare) was immobilised by amine coupling in the target and reference flow cells of sensor chip CM3 (GE Healthcare) to a surface density of 2700 to 3000 resonance units (RU). Immobilisation was carried out at 25° C. in HBS-EP+buffer (GE Healthcare). The buffer was then changed to 50 mM HEPES, pH 7.5, 150 mM NaCl, 0.02% LMNG, 0.002% CHS for the PAR2-antibody interaction assay which was carried out at either 25 or 37° C. Each cycle of the assay began with antibody capture in the target flow cell to a level of 400 to 450 RU. PAR2 was then injected over target and reference flow cells at three concentrations, 5 min each, followed by 30-min dissociation. The surface was then regenerated with a solution provided in the kit (Human Antibody Capture Kit, GE Healthcare). With every antibody tested the first cycle was a blank (three injections of the running buffer) and the second a series of 50, 100, and 200 nM PAR2 injections.
On the technique in general: SPR reads the build-up and loss of mass on a sensor chip optically.
Consider B1, for which the Kd worked out at 0.43 nM, the off-rate constant (koff) was 1.2e-05 s⁻¹, the on-rate constant (kon) is 28000 M⁻¹ s⁻¹ and the “t½” value is 16.1 h.
On to B2, for which the dissociation constant Kd was 0.23 nM, the koff stood at 5.1e-06 s⁻¹, the on-rate constant (kon) was determined as 22000 M⁻¹ s⁻¹ and the “t½” value came out at 37.9 h.
For B3, the dissociation constant (Kd) is 0.2 nM, the dissociation rate constant (koff) was 8.1e-06 s⁻¹, the on-rate (kon) stood at 40000 M⁻¹ s⁻¹ and the “t½” value turned out to be 23.7 h.

For the next test the target is unchanged. Kind of test: SPR Biacore T200; IgG captured, PAR2 as analyte; 25 C, 90 min dissociation.
As to B1, the Kd amounted to 0.21 nM, the off-rate (koff) was 7e-06 s⁻¹, the kon was 34000 M⁻¹ s⁻¹ and the “t½” value was 27.6 h.
On to B2, for which the Kd was 0.3 nM, the off-rate constant (koff) was 8e-06 s⁻¹, the kon is 27000 M⁻¹ s⁻¹ and the “t½” value came to 24.1 h.
Take B3: the Kd is 0.4 nM, the koff is 1.2e-05 s⁻¹, the kon was 30000 M⁻¹ s⁻¹ and the “t½” value worked out at 16.2 h.

Another test concerns the target T2, PAR2-3: P157: 1-377, glycosylated, …. Kind of test: SPR (table head: Octet); IgG captured via Fc, FL-N PAR2 StaR as analyte; koff at the lower assay limit (minimum 2.00E-05 reported). The method, then:
For all eleven IgG1f_AEASS, affinities to human PAR2 were determined by SPR. The IgGs were captured via their Fc-fragment and detergent (LMNG/CHS) solubilised FL-N PAR2 StaR was used as analyte in solution. 50 mM HEPES pH 7.5, 150 mM NaCl, 0.02% LMNG was used as assay buffer. To minimize artefacts introduced by non-specific interaction of FL-N PAR2 StaR with the sensors, the CM3 sensors were used as basis to immobilize a high density of anti-hu-Fc capture antibody (BR-1008-39, GE Healthcare). IgGs were captured with relatively high levels of approximately 500 RU to achieve a higher ratio of specific to non-specific binding (while still maintaining conditions suitable for kinetic characterization). Affinities ranged from 6.5 nM to 130 pM. The koff values of the best candidates were at the lower assay limit. A minimum koff of 2.00E-05 s⁻¹ was reported (corresponding to 3% dissociation in 1500 s).
Background: Biolayer interferometry detects binding as a change in optical thickness at a sensor tip.
With B1, the koff is at most 2e-05 s⁻¹.
Molecule B2 showed a koff of 2e-05 s⁻¹.
In turn, B3 had a koff of 2e-05 s⁻¹.

For another test, the target named is Cynomolgus PAR2 on BacMam-infected HEK293 cells (cynomolgus). Description: cell-based or functional assay.
With B1, the “IC50 (nM), SLIGKV agonist challenge, Cyno” value came to 88 nM.
On the same count and under the same terms, the same measure for B2: 74 nM; for B3: 68 nM.

In the next test the target is T3, Wildtype human PAR2 expressed on cells. Kind of test: cell-based or functional assay.
Turning to B1, the “IC50 (nM), SLIGKV agonist challenge, Human” value (shortened to “IC50 (nM) … Human”) amounted to 61 nM.
On to B2, for which the “IC50 (nM) … Human” value is 52 nM.
Turning to B3, the “IC50 (nM) … Human” value came to 54 nM.

In a further test the target is Rhesus PAR2 on cells (rhesus (Macaca mulatta)). Kind of test: cell-based or functional assay.
As to B1, the “IC50 (nM), SLIGKV agonist challenge, Rhesus” value (“IC50 (nM) … Rhesus” for short) stood at 50 nM.
Consider B2, for which the “IC50 (nM) … Rhesus” value came to 47 nM.
Turning to B3, the “IC50 (nM) … Rhesus” value turned out to be 43 nM.

In another test the target is T3, Wildtype human PAR2 expressed on cells. Kind of test: cell-based or functional assay. The source holds these as a separate data set.
Consider B1, for which the “% Max Inhibition, Bovine Trypsin challenge, IP-One” value (“% Max Inhibition” for short) was determined as 10%.
B2: the “% Max Inhibition” value is 58%.
Turning to B3, the “% Max Inhibition” value is 48%.

As a reminder, the Kd is a measure of binding affinity in units of concentration. In general, koff refers to the first-order rate constant of dissociation. In general, kon refers to the second-order rate constant of association. The t½ is the time needed for the level to fall by half in the phase considered.
